Patent US20160122426A1 (DONG A SOCIO, published 2016)

T1: mouse VEGF (mouse, UniProt Q00731-2 27-190)
T1 construct: Bought recombinant protein; also called mVEGF-A; mouse VEGF-A
T1 sequence (looked up): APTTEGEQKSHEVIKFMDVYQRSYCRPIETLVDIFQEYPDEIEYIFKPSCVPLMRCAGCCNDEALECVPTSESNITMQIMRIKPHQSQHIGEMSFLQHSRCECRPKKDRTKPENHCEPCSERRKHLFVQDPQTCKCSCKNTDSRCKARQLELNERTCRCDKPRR

T2: human VEGF-B (human, UniProt P49765-2 22-188, limits assumed)
T2 construct: also called hVEGF-B
T2 sequence (looked up): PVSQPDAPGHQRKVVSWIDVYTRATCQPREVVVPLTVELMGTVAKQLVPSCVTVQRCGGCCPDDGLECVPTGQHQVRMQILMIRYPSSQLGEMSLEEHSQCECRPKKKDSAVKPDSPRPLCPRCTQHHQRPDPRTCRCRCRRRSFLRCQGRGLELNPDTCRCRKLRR

T3: human VEGF-C (human, UniProt P49767 103-227, limits assumed)
T3 construct: also called hVEGF-C
T3 sequence (looked up): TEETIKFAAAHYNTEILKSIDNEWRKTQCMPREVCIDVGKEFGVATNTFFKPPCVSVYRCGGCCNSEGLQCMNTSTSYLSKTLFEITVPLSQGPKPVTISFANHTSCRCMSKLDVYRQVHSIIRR

T4: human VEGF-D (human, UniProt O43915 93-201, limits assumed)
T4 construct: also called hVEGF-D
T4 sequence (looked up): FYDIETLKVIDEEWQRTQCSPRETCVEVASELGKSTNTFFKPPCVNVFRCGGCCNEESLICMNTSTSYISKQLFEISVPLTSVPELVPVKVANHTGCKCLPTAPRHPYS

T5: human placental growth factor (human, UniProt P49763-2 21-149, limits assumed)
T5 construct: also called PlGF; PIGF
T5 sequence (looked up): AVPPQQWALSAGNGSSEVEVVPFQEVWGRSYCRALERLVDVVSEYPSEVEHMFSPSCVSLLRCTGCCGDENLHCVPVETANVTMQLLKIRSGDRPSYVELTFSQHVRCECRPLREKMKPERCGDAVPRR


Columns and labels:
human VEGF [1] = molecular target: T6, human VEGF (human, UniProt P15692-4 27-191); experiment: ELISA and BIAcore
T6 construct: Bought recombinant protein; also called hVEGF; human VEGF-A

mouse VEGF [2] = molecular target: T1, mouse VEGF; experiment: ELISA and BIAcore
human VEGF [3] = molecular target: T6, human VEGF; experiment: SPR (BIAcore X100), VEGF on CM5 chip, IgG injected, 1:1 Langmuir
Text: Meanwhile, to measure the affinity, human VEGF and mouse VEGF were coupled to carboxymethylated dextran biosensor chips (CM5, GE) according to the manufacturer's instructions.
The association and dissociation rates were expressed by the association and dissociation sensorgram, and calculated using a simple 1:1 Langmuir binding model (BIAcore X100 evaluation software, ver. 2.0).
Target sequence in this assay (P15692 other isoform, or with tags, fused parts or gaps limits assumed): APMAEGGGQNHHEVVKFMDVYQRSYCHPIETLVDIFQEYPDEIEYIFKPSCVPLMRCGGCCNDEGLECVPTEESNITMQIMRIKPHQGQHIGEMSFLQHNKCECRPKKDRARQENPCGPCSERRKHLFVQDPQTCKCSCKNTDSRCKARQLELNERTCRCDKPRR

human VEGF [4] = molecular target: T6, human VEGF; experiment: ELISA, human VEGF coated, anti-human Fc-HRP, absorbance 450 nm [b]
Procedure: (§1) 1.5 ng of human VEGF diluted in 150 μL of buffer solution was placed in 96-well immune plate (Nunc, USA), and adsorbed at 4° C. overnight, followed by washing 3 times with a buffer solution containing 0.1% Tween 20. Then, they were reacted with a buffer solution including 1% bovine serum albumin (Sigma, USA) for 1 hr at room temperature, and washed 3 times. Then each well was treated with 150 μL of serially diluted antibody (1 ng/mL, 10 ng/mL, 30 ng/mL, 100 ng/mL, 1000 ng/mL and 3000 ng/mL) They were allowed to react for 1 hr at room temperature so that antigens may bind to antibodies, followed by washing 3 times with a buffer solution.
(§2) Each well was treated at 150 μL per well with anti-human immunoglobulin Fc-HRP antibody (AbSerotec, USA) diluted 1:20000 and allowed to react for 1 hr at room temperature. After the reaction was completed, washing was performed 3 times with a buffer solution, followed by addition of 150 μL of TMB (Sigma, USA) and color development for 10 min. The reaction was terminated with 1N sulfuric acid solution, and absorbance was measured at 450 nm using a spectrophotometer (Molecular Device, USA).

human VEGF [5] = molecular target: T6, human VEGF; experiment: ELISA, human VEGF coated, anti-human Fc-HRP, absorbance 450 nm [c]
Procedure: as §1, §2

mouse VEGF [6] = molecular target: T1, mouse VEGF; experiment: ELISA, mouse VEGF coated, anti-human Fc-HRP, absorbance 450 nm [a]
human VEGF-B = molecular target: T2, human VEGF-B; experiment: ELISA, 0.2 ug/ml protein coated, anti-human IgG-Fab-HRP, absorbance 650 nm; antibody concentration not shown
Procedure: (§3) 0.2 μg/ml each of the respective proteins (hVEGF-A, mVEGF-A, hVEGF-B, hVEGF-C, hVEGF-D and PlGF) (R&D systems) were coated to the wells of ELISA plate, respectively. After blocking them with PBS containing 3% BSA and 0.05% Tween 20 for 30 min at 37° C., antibody clone proteins of increasing concentrations were incubated at 37° C. for 2 hr. Then, the wells were washed with PBS containing 3% BSA and 0.05% Tween 20 for 3 times, and anti-human IgG-Fab-HRP conjugate (Jackson Immunoresearch, USA) was added thereto and incubated for 1 hr at room temperature. Then they were washed with PBS containing 3% BSA and 0.05% Tween 20 for 3 times, and developed using TMB, and absorbance was measured at 650 nm.

human VEGF-C = molecular target: T3, human VEGF-C; experiment: as above
Procedure: as §3

human VEGF-D = molecular target: T4, human VEGF-D; experiment: as above
Procedure: as §3

[7] = molecular target: T5, human placental growth factor; experiment: as above
Procedure: as §3

human VEGF [8] = molecular target: T6, human VEGF; experiment: competition ELISA: human VEGF coated, 9 nM KDR ECD IgG-Fc (VEGFR2) added together with the antibody, bound receptor-Fc detected, absorbance 405 nm
Procedure: 0.5 μg/ml of human VEGF was coated to 96-well ELISA plate and blocked with PBS solution containing 3% BSA and 0.05% Tween 20.

human VEGF [9] = molecular target: T6, human VEGF; experiment: ELISA, human VEGF coated, absorbance 650 nm [g]

| fold affinity over mother clone F (human VEGF [1]) | fold affinity over mother clone F (mouse VEGF [2]) | Kd (human VEGF [3]) | koff (human VEGF [3]) | kon (human VEGF [3]) | EC50 (read off the curve) (human VEGF [4]) | EC50 (read off the curve) (human VEGF [5]) | EC50 (read off the curve) (mouse VEGF [6]) | binding result (human VEGF-B) | binding result (human VEGF-C) | binding result (human VEGF-D) | binding result [7] | IC50 (read off the curve) (human VEGF [8]) | EC50 (read off the curve) (human VEGF [9]) | Binder |
| --- | --- | --- | --- | --- | --- | --- | --- | --- | --- | --- | --- | --- | --- | --- |
| ≥ 10 times | ≥ 10 times | 19 pM | 2.6e-05 s⁻¹ | 1.3e+06 M⁻¹ s⁻¹ | ~0.04 µg/mL | ~0.02 µg/mL | ~0.06 µg/mL | no binding | no binding | no binding | no binding | ~5000 pM | – | HF2-5 (antibody, V domains shown, also called HF-5) VH: EVQLVESGGGLVQPGGSLRLSCAASGFMIRSHGMQWVRQAPGKGLEYVAGISSDGSWARHSAAVEGRFTISRDDSKNTAYLQMNSLRAEDTAVYYCARDFSTGYGADSIDAWGQGTLVTVSS VL: DIQMTQSPSSLSASVGDRVTITCSGGSDSAYGYGWYQQKPGKAPKTLIYWDDKRPSGVPSRFSGSRSGTDFTLTISSLQPEDFATYYCGAWEYSGGVGIFGQGTKVEIK |
| ≥ 10 times | ≥ 10 times | – | – | – | – | – | – | – | – | – | – | – | ~300 pM | HF2-26 (antibody, V domains shown) VH: EVQLVESGGGLVQPGGSLRLSCAASRFNMRSHGMQWVRQAPGKGLEYVAGISSDGSWIRVQAAVEGRFTISRDDSKNTAYLQMNSLRAEDTAVYYCARDFSTGYGADSIDAWGQGTLVTVSS VL: DIQMTQSPSSLSASVGDRVTITCTAPADSAYGYGWYQQKPGKAPKTLIYWDDKRPSGVPSRFSGSRSGTDFTLTISSLQPEDFATYYCGAWEYSGGVGIFGQGTKVEIK |
| ≥ 10 times | ≥ 10 times | 18 pM | 3.2e-05 s⁻¹ | 1.7e+06 M⁻¹ s⁻¹ | ~0.04 µg/mL | – | ~0.05 µg/mL | no binding | no binding | no binding | no binding | ~5000 pM | – | HF2-9 (antibody, V domains shown, also called HF-9) VH: EVQLVESGGGLVQPGGSLRLSCAASMFRIRSHGMQWVRQAPGKGLEYVAGISSDGSWFRVAAAVEGRFTISRDDSKNTAYLQMNSLRAEDTAVYYCARDFSTGYGADSIDAWGQGTLVTVSS VL: DIQMTQSPSSLSASVGDRVTITCSGGSMEPLGYGWYQQKPGKAPKTLIYWDDKRPSGVPSRFSGSRSGTDFTLTISSLQPEDFATYYCGAWEYSGGVGIFGQGTKVEIK |
| ≥ 10 times | ≥ 10 times | 4.7 pM | 6.8e-06 s⁻¹ | 1.4e+06 M⁻¹ s⁻¹ | ~0.04 µg/mL | – | ~0.05 µg/mL | no binding | no binding | no binding | no binding | ~5000 pM | – | HF2-11 (antibody, V domains shown, also called HF-11; clone HF2-11) VH: EVQLVESGGGLVQPGGSLRLSCAASGFLIRSHGMQWVRQAPGKGLEYVAGISSDGSWVKVAAAVEGRFTISRDDSKNTAYLQMNSLRAEDTAVYYCARDFSTGYGADSIDAWGQGTLVTVSS VL: DIQMTQSPSSLSASVGDRVTITCSGGSSEPLGYGWYQQKPGKAPKTLIYWDDKRPSGVPSRFSGSRSGTDFTLTISSLQPEDFATYYCGAWEYSGGVGIFGQGTKVEIK |
| ≥ 10 times | ≥ 10 times | 36 pM | 5.7e-05 s⁻¹ | 1.5e+06 M⁻¹ s⁻¹ | – | ~0.02 µg/mL | – | – | – | – | – | – | – | HF2-8 (antibody, V domains shown, also called HF-8) VH: EVQLVESGGGLVQPGGSLRLSCAASGFHIRSHGMQWVRQAPGKGLEYVAGISSDGSWLKLSAAVEGRFTISRDDSKNTAYLQMNSLRAEDTAVYYCARDFSTGYGADSIDAWGQGTLVTVSS VL: DIQMTQSPSSLSASVGDRVTITCSGGSTYSLGYGWYQQKPGKAPKTLIYWDDKRPSGVPSRFSGSRSGTDFTLTISSLQPEDFATYYCGAWEYSGGVGIFGQGTKVEIK |
| ≥ 10 times | ≥ 10 times | – | – | – | – | – | – | – | – | – | – | – | ~100 pM | HF2-19 (antibody, V domains shown) VH: EVQLVESGGGLVQPGGSLRLSCAASGFSTRSHGMQWVRQAPGKGLEYVAGISSDGSWKATAAAVEGRFTISRDDSKNTAYLQMNSLRAEDTAVYYCARDFSTGYGADSIDAWGQGTLVTVSS VL: DIQMTQSPSSLSASVGDRVTITCSGGSDSAYGYGWYQQKPGKAPKTLIYWDDKRPSGVPSRFSGSRSGTDFTLTISSLQPEDFATYYCGAWEYSGGVGIFGQGTKVEIK |
| ≥ 10 times | ≥ 10 times | 1.9 pM | 3.1e-06 s⁻¹ | 1.6e+06 M⁻¹ s⁻¹ | – | ~0.02 µg/mL | – | – | – | – | – | – | – | HF2-4 (antibody, V domains shown, also called HF-4) VH: EVQLVESGGGLVQPGGSLRLSCAASGWSMRSHGMQWVRQAPGKGLEYVAGISSDGSWRRHSAAVEGRFTISRDDSKNTAYLQMNSLRAEDTAVYYCARDFSTGYGADSIDAWGQGTLVTVSS VL: DIQMTQSPSSLSASVGDRVTITCSGGSDSAYGYGWYQQKPGKAPKTLIYWDDKRPSGVPSRFSGSRSGTDFTLTISSLQPEDFATYYCGAWEYSGGVGIFGQGTKVEIK |
| ≥ 10 times | ≥ 10 times | – | – | – | – | – | – | – | – | – | – | – | ~200 pM | HF2-25 (antibody, V domains shown) VH: EVQLVESGGGLVQPGGSLRLSCAASYMEYRSHGMQWVRQAPGKGLEYVAGISSDGSWFRMNAAVEGRFTISRDDSKNTAYLQMNSLRAEDTAVYYCARDFSTGYGADSIDAWGQGTLVTVSS VL: DIQMTQSPSSLSASVGDRVTITCSGGSNFPMGYGWYQQKPGKAPKTLIYWDDKRPSGVPSRFSGSRSGTDFTLTISSLQPEDFATYYCGAWEYSGGVGIFGQGTKVEIK |
